The values that follow are results of earlier work, collected in US20230090114A1, “METHODS FOR PROMOTING WEIGHT LOSS” (89BIO LTD., priority 2020, published 2023).

The conditions of the data set: in vivo; cited from earlier work.

B1: recombinant human FGF-21: recombinant human FGF-21 (SEQ ID NO: 1 is native human FGF-21) (protein, listed as Homo sapiens)
chain: MHPIPDSSPLLQFGGQVRQRYLYTDDAQQTEAHLEIREDGTVGGAADQSPESLLQLKALKPGVIQILGVKTSRFLCQRPDGALYGSLHFDPEACSFRELLLEDGYNVYQSEAHGLPLHLPGNKSPHRDPAPRGPARFLPLPGLPPALPEPPGILAPQPPDVGSSDPLSMVGPSQGRSPSYAS
For the molecule B1, the half-life is 1 to 2 h.
